The values that follow come from publication PMC4459106.

Substrate in the data set: CC(C)C[C@H](NC(=O)[C@H](CCCCN)NC(=O)[C@H](C)NC(=O)[C@@H]1CCCN1C(=O)[C@H](CO)NC(=O)[C@H](CCCNC(=N)N)NC(=O)[C@@H]1CCCN1)C(=O)N[C@@H](CO)C(=O)N[C@@H](Cc1ccccc1)C(=O)N[C@@H](CCC(N)=O)C(=O)N[C@@H](Cc1ccccc1)C(=O)N1CCC[C@H]1C(=O)N[C@@H](CO)C(=O)O
In words: purified protein, by the assay type. Format: biochemical, rat (rat ERK2 numbering used throughout). Particulars: other: phosphorylation by 2 nM ppERK2, 1.6–400 μM Elk387-399, 500 μM γ-32P ATP, 25 mM HEPES pH 7.5, 10 mM MgCl2, 30 °C, Michaelis-Menten fit. On the procedure: Kinase assays to determine the Michelis-Menten parameters for the phosphorylation of Elk387-399by ppERK2 were performed in 100 μL volumes at 30 °C in a buffer containing 25 mM HEPES pH 7.5, 50 mM KCl, 0.1 mM EDTA, 0.1 mM EGTA, 2 mM DTT, 10 mM MgCl2, and 40 μg/mL BSA. […] The reaction mixture was incubated for 10 minutes at 30 °C before initiation with 500 μM γ-^32P ATP (specific activity of 1 × 10^15 cpm/mol). Aliquots (10 μL) were spotted onto P81 filter papers at fixed times. The filter papers were washed three times for 15 minutes with 50 mM phosphoric acid to remove excess ATP and washed once with acetone for drying. The amount of phosphate incorporated into Elk387-399was determined by the associated counts per minute on a scintillation counter (Packard 1500) at a σ value of 2.

B1: ppERK2 (Rattus norvegicus) (protein)
chain: MAAAAAAGPEMVRGQVFDVGPRYTNLSYIGEGAYGMVCSAYDNLNKVRVAIKKISPFEHQTYCQRTLREIKILLRFRHENIIGINDIIRAPTIEQMKDVYIVQDLMETDLYKLLKTQHLSNDHICYFLYQILRGLKYIHSANVLHRDLKPSNLLLNTTCDLKICDFGLARVADPDHDHTGFLTEYVATRWYRAPEIMLNSKGYTKSIDIWSVGCILAEMLSNRPIFPGKHYLDQLNHILGILGSPSQEDLNCIINLKARNYLLSLPHKNKVPWNRLFPNADSKALDLLDKMLTFNPHKRIEVEQALAHPYLEQYYDPSDEPIAEAPFKFDMELDDLPKEKLKELIFEETARFQPGYRS
notes: made in house
B1: the Km (usually the substrate concentration at which the rate is half of its maximum) is 13.4 ± 1.1 µM; the kcat (usually the number of substrate molecules converted per active site and unit of time at saturation) was 0.56 ± 0.1 s⁻¹.
